From the nanobody polyreactivity screen of Harvey et al. (2022) come the findings set out here.

The data set can be described thus: yeast display, Sf9 membrane polyspecificity reagent, FACS + sequencing; frameworks hold sequencing errors. An outline of the steps:
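Polyreactivity labels are assigned by the sorting gate from which each nanobody was recovered. The gates were low and high (top ~1%), set on anti-HA fluorescence for expression and streptavidin fluorescence for reagent binding. Before sorting, galactose-induced (36–48 hours) yeast display cells were stained for 1 hour at 4 °C with 10% biotinylated, detergent-solubilized Sf9 membrane reagent.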
Regarding “QVQLVESGGGLVQAGGSLRLTCAASGNTFYGYSKGWYRQATGKERELVASISLSGDSTYYADSVKGRFTISRDNAKNTVYLQLNSLKPEDTAVYYCAGVYTYPLGYYHYTYDYWGQGTQVTVSS”, the “polyreactivity (PSR sort gate)” value is on record as “low polyreactivity”. The entry for “QVQLVESAGGLVQAGGSLRLSCAASGRIFVYYAMGGYRKAPGKERELVAAISDSDDSSYYADSVKGRFTISRDNAKNTVYLQMNSLKPEDTAVYYCAAEGDIGGDDYYWGQGTQLTVSS” is “high polyreactivity”. Consider “QVQLVESGGVLVQAGGSLRLSCAASVFIFPYYAMGRYRQEPGKEMELVAAISSGGITNYADSVKGRFTISRDNSKNTVYLQMNSLKPEDTAVYYCAAKRRVGNFRYGYWGQGTQVTVSS”, for which the “polyreactivity (PSR sort gate)” value is on record as “high polyreactivity”. For “QVQLVESGGGLVQAGGSLRLSCAASGIIFTYYAMGWYIQAPGKERELVAGITWSGTTTYYADSVKGRFTISRDNAKKTVYLQMNSLKPEDPAVYYCNALGYYEHDYWGQGTQVTVSS”, the “polyreactivity (PSR sort gate)” value was “low polyreactivity”.

With “QVQLVESGGGLVQAVGSLRLSCAASGRTFYGYALGWYRQQPGKVSELVAAISADTGRTRYADSVKGRFTISRDNAKNTVYLQMICLNPEDTAVYYCATRLFPQSRYYYWGQGTQVTVSS”, the “polyreactivity (PSR sort gate)” value was “high polyreactivity”. In the case of “QVQLVESGGGLVQAGGSLRLSCAASGRIFGYYTMGSYRQAPGKEREFVASISSTGGSTYYADSVKGRFTISRDNAKNTVYLQMNSLKPEDTAVYYCAARGRYVIDGYRMYYWGQGTQVTVSS”, the “polyreactivity (PSR sort gate)” value was “high polyreactivity”. With “QVQLVESGGGLVQAGGSLRLSCAASGRIFEVYTMGWYRQAPGKERELVAAIDRSTGSTYYADSVKGRFTISRDNAKNTVYLQMHSLKPEDTAVYYCAARGTFLGTRPLGRFDYWGQGTQVTVSS”, the “polyreactivity (PSR sort gate)” value is “low polyreactivity”. Under “QVQLVESGGGLVQAGGSLRLSCAASGRILDYYAMGWYRQAPGKERELVAAISRSGSDTYYADSVKGRFTISRDNAKNTVYLQMNSLKPEDTAVYYCAARWSYRSLARYNYWGQGTQVTVSS” stands “low polyreactivity”. The entry for “QVQLVESGGGLVQAGGSLRLSCAASGSTFGKYAMGWYRQAPGKERELVAAITESDSSTYYADSVKGRFTLSRDNAKNTVYLQMNSLKPEDTAVDYCAADSLYSYPWSTYFYGGDYWGQGTQVTVSS” is “low polyreactivity”; for “QVQLVESGGGLVQAGGSLRLSCAASGSIFAGYTMGWSRQAPGKERELVAVISTGGRTKYADSVKGRFTISRDNAKNTVYLQMNSLKPEDTAVYYCAADSRGWSLDGDYWGQGTQVTVSS” it is “low polyreactivity”; for “QVQLVESGGGLVHAGCSLRLSCAASGFTFGVYAMGWYRQAPGKERELVAAISTTVGSTYYADSVKGRFTISRDNAKNTFYLQMNSLKPEDTAVYYCAAEYTVYINYYIYEYWGQGTQVTVSS” it is “low polyreactivity”. For the sequence “QVQLVDSGGGLVQAGGSLRLSCPASGSTFSRYAMGWYRQAPGKERELVAAISRSGGTTYYADSVKGRFTISRDNAKNTVYLQMNSLKPEDTAVYYCNDRGRYEYGYWGQGTQVTVSS”, the “polyreactivity (PSR sort gate)” value is “high polyreactivity”. Under “QVQLQESGGGLVQAGGSLRLSCAASGIIFDNPNMGWYRQAPGKERELVATINSGATTNYADSVKGRFTISRDNAKNTVYLQMNSLIPEDTAVYYCAVDLSPTYFYYWGQGTQVTVSS” stands “high polyreactivity”; under “QVQLVESWGGLVQAGGSLRLSCAASGSTFSLYTMGWYRQAPGKERELVATIDSGGSTNYADSVKGRFTISRDNAKNTVYLQMNSLKPEDTAVYYCVDYYNGYTHNYNYWGQGTQVTVSS”, “low polyreactivity”. In the case of “QVQLVESGGGLVQAGGSLRLSCAASGRIFWTNAMGWYRQAPGKERELVAAISRSGGSTYYADSVKGRFTISRDNAKNTVYLQMNSLKPEDTAVYYCAARAGRRPYDYWGQGTQVTVSS”, the “polyreactivity (PSR sort gate)” value is given as “high polyreactivity”.

In the case of “QVQLVESGGGLVQAGGSLRLSCAASGFIFRRNAMGWYRQAPGKERELVAAISRTGGSTYYADCVKGRFTISRDNAKNTDYLQMNSLKPEDTAVYYCARYGLVYALGYWGQGTQVTVSS”, the “polyreactivity (PSR sort gate)” value was “high polyreactivity”. The entry for “QVQLVESGGGLVQAGGSHRLSCAASGRIFDKNAMGWYRQAPGKERELVAAINRSGGRTYYADSVKGRFTISRDNAKNTVYLQMNSLKPEDTAVYYCAADTQGSRYDYWGQGTQVTVSS” is “high polyreactivity”. For “QVQLVESGGGLVQAGGSLRLSCAASGFTGVNAMGWYRQAPGKERELVARISNSGGSTYYADSVKGRFTISRDNAKNTVYLQMNSLKPEDTAVYYCNADSYYWGQGTQVTVSS”, the “polyreactivity (PSR sort gate)” value is listed as “high polyreactivity”. In the case of “QVQLVESGGGLVQAGGSLRLSCAASGYIFSLNGMGWYRQEPVKERELVAAITVSGGRTYYADSVKGRFTISRDNAKNTVYLQMNSLKPEDTAVYYCAKRGKYSYWPYYKYDYWGQGTQVTVSS”, the “polyreactivity (PSR sort gate)” value is “high polyreactivity”.

Take “QVQLVESGGGLVQAGGSLRLSCAASGSIFGYYTMGWYRQAPGKERELVAAISQGGARTYYADSVKGRFTISRDNAKNTVYLQMNSLKPEDTAVYYCNAVSPAGYWFDYWGQGTQVTVSS”: the “polyreactivity (PSR sort gate)” value is “high polyreactivity”.

In the case of “QVQLVESAGGLVQAGGTLRLSCDASGFIIYYYAMGWYRQAPGKERELVAAISRGGSTYYADSVKGRFTISRDNAKNTGYLQMISLKPEDTAVYYCASEDFPVYSYYYWGQGSQVTVSS”, the “polyreactivity (PSR sort gate)” value is “high polyreactivity”. Regarding “QVQLVESGGGLVQAGGSLRLSCAASGRTFNPNAMGWYRQAPGKERELVATISWSSDSTYYADSVKGRFTISRDNAKNTVYLQMNSLKPEDTAVYYCNAQLSYHWYSPGYDYWGQGTQVTVSS”, the “polyreactivity (PSR sort gate)” value is “low polyreactivity”. As for “QVQLVESGGGLVQAGGSLRLSCAASGSIFSQYAMGWYRQAPGKERELVAAITYGGGSTYYADSVKGRFTISRDNAKNTVYLQMNSLKPEDTAVYYCAAGYWNDFDWGQGTQVTVSS”, the “polyreactivity (PSR sort gate)” value was “low polyreactivity”. As to “QVQLVESGGGLVQAGGSLRLSCAASGRNIWGYTMGWYRQAPGKERDLVAAIRFTSGSTYYADSVKGRFTISRDNAKNSVYLQMNSLKPEDTAVYYCATPYVQTGSGYTGVYWGQGTQVTVSS”, the “polyreactivity (PSR sort gate)” value is given as “high polyreactivity”.

Regarding “QVQLVESGGGLVQAGGSLRLSCAASGSIFGWYAMGWYRQAPGKDWELVAASRRGGSTNYADSVKGRFTISRDNAKNTVYFQMNSLIPEATAVYYCAAGKSGYSKRIFRYSFDYWGQGTQVTVSS”, the “polyreactivity (PSR sort gate)” value is on record as “high polyreactivity”.

Consider “QVQLVESGGGLVKAGGSLRFSCAASVITFVWYAMGWYRQAPGKERDLVASIDSSVSTNYADSVKGRFTISRDNEKNTVYFQMNSLKPEDTAVYYCAAYFFFGQVGGMEYWGQGTQVTVSS”, for which the “polyreactivity (PSR sort gate)” value is given as “low polyreactivity”.

Turning to “QVQLVESGGGLVQAGGSLRLSCAASGSIFQGYPMGWYRQAPGKERELVATIRWSSGSRTNYADSVKGRFTISRDNAKNTVYLQMNSLKPEDTAVYYCAAGSRRYKYDYWGQGTQVTVSS”, the “polyreactivity (PSR sort gate)” value is reported as “high polyreactivity”. The entry for “QVQLVESGGGLVQAGGSLRLSCATSGGTLVANAMGWSSQPPGKESEFVAVITLTAGSTSYADSVKGRLTISRDNAKNTVYLQMNSLKPEDTAVYYCNVDVYNVYNSYPYYYWGQGTQVTVSS” is “low polyreactivity”; for “QVQLVESGGGLVQAGGILRLSCAASGIIFDTNAMGWYRQAPGKERELVASISKRGGSTYYADSVKGRFTISRDNAKNTVYFQMNSLKPEDTAVYYCNALRRRLYHDDYWGQGTQVTVSS” it is “high polyreactivity”. For “QVQRVESGGGLVQAGGSLRLSCAASGLIFRKYAMGWYRQEPGKERELVAAISLRGVSTYYADSVKGRFTISRDNAKNTVYLQMNRLKPEDTAVYYCAADVYYPLGYGLDYWGQGYQVTVSS”, the “polyreactivity (PSR sort gate)” value is recorded as “low polyreactivity”. The entry for “QVQLVESGGGLVQAGGSLRLSCAASGIIFGENAMGWYRQAPGKERELVAAINSVGSTYYADSVKGRFTISRDNAKNTVYLQMNSLKPEDTAVYYCAAESWFLRWYRYDYWGQGTQVTVSS” is “low polyreactivity”. Turning to “QVQLVESGGGLVQAGGSLRLSCAASGSTLDYYAIGWYRQAPGKEREFVAGIDSAGSTNYADSVKGRFTISRDNAKNTVYLQMNSLKTGRYRGLYCNVGKTITTYAFPTFDYWGQGTQVTVSS”, the “polyreactivity (PSR sort gate)” value was “low polyreactivity”. For “QVQLVESGGGLVQAGGSLSLSCAASGSIFYGNAMGWYRQEPGKERELVAAITYGTSSTYYADSVKGRFTISRDKAKNTVYLQMNSLKPEDTAVYYCAADAKSHPTTRNYVGSPMDYWGQGTQVTVSS”, the “polyreactivity (PSR sort gate)” value is “low polyreactivity”. In the case of “QVQLVESGGGLVQAGGSLRLSCAASGFIFKVNAMGCYRQAPGKERELVAAISRRGGTTYYADSVKGRFTISRDNAKNTVYFQLNSLKPEDTAVYYCYRARSYGVTDKVAILADDYWGQGTQVTVSS”, the “polyreactivity (PSR sort gate)” value was “high polyreactivity”. On to “QVQLVESGGGLVQAGGSLRLSCAASGLTFKYYTMGWYRQAPGKERELVADISRTGRTSYADSVKGRFTISRDNAKNTDYLQMNSLKPEDTAVYYCNADFYVSGYSLFASIYDYWGQGTQVTVSS”, for which the “polyreactivity (PSR sort gate)” value was “high polyreactivity”. Regarding “QVQLVESGGGLVQAGGSLRLSCAASGSTMDYNAMGWYRQAPGKERELVAAITNGGSTTYADSVKGRFTISRDNAKNTVYLQMNSLNPEDTAVYYCAAKWYPQLWFWKFLTYNYWGQGPQVTVSS”, the “polyreactivity (PSR sort gate)” value is “low polyreactivity”.

For “QVQLVDSGGGLLQAGASLRLSCAASGITFYINAMGWYRQPPGKERALVAVIDSRGSSTFYADSVKGRFTISRHNAKNSVYLQMNSLKPEYTAVYYCAAEPDTYWYTYDYWGQRTQVTVSS”, the “polyreactivity (PSR sort gate)” value is listed as “low polyreactivity”.

With “QVQLVESGGGLVQAGGSLRLSCAASGSLFRSYAMGWYRQAPGKERELVAAISTRVVNTYYADSVKGRFTISRDNAKNTVYLQMNSLKPEDTAVYYCAALRYRITNVYYWGQGTQVTVSS”, the “polyreactivity (PSR sort gate)” value is given as “high polyreactivity”.

On to “QVQLVESGGGLVQAGGSLRLSCAASGITSSYAMGWYRQAPGKERELVAAISRGGSTYYADSVKGRFTISRDNAKNTVYLLLNSLKPEDTAVYYCNKRRYPYGWGQGTLVTVSS”, for which the “polyreactivity (PSR sort gate)” value is recorded as “high polyreactivity”.

Take “QVQLEESGGGLVQAGGSLRLSCADSGITFYLNAMGWYRQAPGKERELVADITVSGGSTYYADSVKGRFTISRDNAKNTVYLEMNSLKPEDTAVYYCAADMTISYSQEYYFWGQGTQVTVSS”: the “polyreactivity (PSR sort gate)” value is “low polyreactivity”. For “QVQLVESVGGLVQAGGSLRLSCAASGSIFLQNAMGGYRQAPGKERELVAAITNGGSTNYADSVKGRFTISRDNAKNTVYLQMNSLKPEDTAVYYCAAYPLYTGSYDRGGYWGQGTLVTVSS”, the “polyreactivity (PSR sort gate)” value is “low polyreactivity”.
